Measured values published in US20240132578A1.

Columns and labels:
Assay in all cases: cell-based or functional assay
[1] = molecular target: HIV-1 92UG024 envelope glycoprotein (Env) on pseudovirus (HIV-1)
[2] = molecular target: HIV-1 92TH021 envelope glycoprotein (Env) on pseudovirus (HIV-1)
[3] = molecular target: HIV-1 92BR020 envelope glycoprotein (Env) on pseudovirus (HIV-1)
[4] = molecular target: HIV-1 MGRM-D-018 envelope glycoprotein (Env) on pseudovirus (HIV-1)
[5] = molecular target: HIV-1 NL43 envelope glycoprotein (Env) on pseudovirus (HIV-1)
[6] = molecular target: HIV-1 MGRM-AG-005 envelope glycoprotein (Env) on pseudovirus (HIV-1)
[7] = molecular target: HIV-1 92RW020 envelope glycoprotein (Env) on pseudovirus (HIV-1)
[8] = molecular target: HIV-1 JRFL envelope glycoprotein (Env) on pseudovirus (HIV-1)
[9] = molecular target: HIV-1 MGRM-D-001 envelope glycoprotein (Env) on pseudovirus (HIV-1)
[10] = molecular target: HIV-1 APV17 envelope glycoprotein (Env) on pseudovirus (HIV-1)
[11] = molecular target: HIV-1 MGRM-A-010 envelope glycoprotein (Env) on pseudovirus (HIV-1)
[12] = molecular target: HIV-1 APV13 envelope glycoprotein (Env) on pseudovirus (HIV-1)
[13] = molecular target: HIV-1 93UG077 envelope glycoprotein (Env) on pseudovirus (HIV-1)
[14] = molecular target: HIV-1 APV6 envelope glycoprotein (Env) on pseudovirus (HIV-1)
[15] = molecular target: HIV-1 93IN905 envelope glycoprotein (Env) on pseudovirus (HIV-1)
[16] = molecular target: HIV-1 92UG005 envelope glycoprotein (Env) on pseudovirus (HIV-1)
[17] = molecular target: HIV-1 CMU02 envelope glycoprotein (Env) on pseudovirus (HIV-1)
[18] = molecular target: HIV-1 MGRM-C-026 envelope glycoprotein (Env) on pseudovirus (HIV-1)
[19] = molecular target: HIV-1 MGRM-C-027 envelope glycoprotein (Env) on pseudovirus (HIV-1)
[20] = molecular target: HIV-1 JRCSF envelope glycoprotein (Env) on pseudovirus (HIV-1) (UniProt P20871)
[21] = molecular target: aMLV envelope protein on pseudovirus (negative control virus)
[22] = molecular target: HIV-1 94UG103 envelope glycoprotein (Env) on pseudovirus (HIV-1)
[23] = molecular target: HIV-1 MGRM-C-028 envelope glycoprotein (Env) on pseudovirus (HIV-1)
[24] = molecular target: panel of 22 HIV-1 pseudoviruses of Table 52

B1: 5147_N06 (PGT-130) human monoclonal antibody (antibody, V domains shown)
VH: QVQLQESGPGLVKPAETLSLTCSVSGESINTGHYYWGWVRQVPGKGLEWIGHIHYTTAVLHNPSLKSRLTIKIYTLRNQITLRLSNVTAADTAVYHCVRSGGDILYYYEWQKPHWFSPWGPGIHVTVSS
VL: QSALTQPPSASGSLGQSVTISCNGTSSDIGGWNFVSWYQQFPGRAPRLIIFEVNKRPSGVPGRFSGSKSGNSASLTVSGLQSDDEGQYFCSSLFGRWDVVFGGGTKLTVL
B1 was tested, and the IC50, neutralization of pseudovirus [1] was over 10 µg/mL, the IC80, neutralization of pseudovirus [1] was over 10 µg/mL and the IC90 (neutralization of pseudovirus) [1] was over 10 µg/mL. The IC95, neutralization of pseudovirus [1] was over 10 µg/mL, the IC50, neutralization of pseudovirus [2] was 8.2 ng/mL and the IC80, neutralization of pseudovirus [2] was 0.0261 µg/mL. For the same binder, the IC90 (neutralization of pseudovirus) [2] was 0.0513 µg/mL, the IC95, neutralization of pseudovirus [2] was 0.0963 µg/mL and the IC50, neutralization of pseudovirus [3] was 1.12 µg/mL. For the same binder, the IC80, neutralization of pseudovirus [3] was over 10 µg/mL, the IC90 (neutralization of pseudovirus) [3] was over 10 µg/mL and the IC95, neutralization of pseudovirus [3] was over 10 µg/mL. It also gave an IC50, neutralization of pseudovirus [4] of 0.0378 µg/mL, an IC80, neutralization of pseudovirus [4] of 0.289 µg/mL and an IC90 (neutralization of pseudovirus) [4] of 2.31 µg/mL. The IC95, neutralization of pseudovirus [4] was over 10 µg/mL, the IC50, neutralization of pseudovirus [5] was over 10 µg/mL and the IC80, neutralization of pseudovirus [5] was over 10 µg/mL. The IC90 (neutralization of pseudovirus) [5] was over 10 µg/mL, the IC95, neutralization of pseudovirus [5] was over 10 µg/mL and the IC50, neutralization of pseudovirus [6] was 0.947 µg/mL. It also gave an IC80, neutralization of pseudovirus [6] of over 10 µg/mL, an IC90 (neutralization of pseudovirus) [6] of over 10 µg/mL and an IC95, neutralization of pseudovirus [6] of over 10 µg/mL. It also gave an IC50, neutralization of pseudovirus [7] of 0.014 µg/mL, an IC80, neutralization of pseudovirus [7] of 0.508 µg/mL and an IC90 (neutralization of pseudovirus) [7] of 3.68 µg/mL. It also gave an IC95, neutralization of pseudovirus [7] of over 10 µg/mL, an IC50, neutralization of pseudovirus [8] of 0.0346 µg/mL and an IC80, neutralization of pseudovirus [8] of 0.751 µg/mL. It also gave an IC90 (neutralization of pseudovirus) [8] of 5.72 µg/mL, an IC95, neutralization of pseudovirus [8] of over 10 µg/mL and an IC50, neutralization of pseudovirus [9] of over 10 µg/mL. It also gave an IC80, neutralization of pseudovirus [9] of over 10 µg/mL, an IC90 (neutralization of pseudovirus) [9] of over 10 µg/mL and an IC95, neutralization of pseudovirus [9] of over 10 µg/mL. For the same binder, the IC50, neutralization of pseudovirus [10] was over 10 µg/mL, the IC80, neutralization of pseudovirus [10] was over 10 µg/mL and the IC90 (neutralization of pseudovirus) [10] was over 10 µg/mL. It also gave an IC95, neutralization of pseudovirus [10] of over 10 µg/mL, an IC50, neutralization of pseudovirus [11] of 5.4 ng/mL and an IC80, neutralization of pseudovirus [11] of 0.0251 µg/mL. For the same binder, the IC90 (neutralization of pseudovirus) [11] was 0.0643 µg/mL, the IC95, neutralization of pseudovirus [11] was 0.164 µg/mL and the IC50, neutralization of pseudovirus [12] was 0.0345 µg/mL. It also gave an IC80, neutralization of pseudovirus [12] of 0.573 µg/mL, an IC90 (neutralization of pseudovirus) [12] of 2.88 µg/mL and an IC95, neutralization of pseudovirus [12] of over 10 µg/mL. The IC50, neutralization of pseudovirus [13] was over 10 µg/mL, the IC80, neutralization of pseudovirus [13] was over 10 µg/mL and the IC90 (neutralization of pseudovirus) [13] was over 10 µg/mL. For the same binder, the IC95, neutralization of pseudovirus [13] was over 10 µg/mL, the IC50, neutralization of pseudovirus [14] was over 10 µg/mL and the IC80, neutralization of pseudovirus [14] was over 10 µg/mL. The IC90 (neutralization of pseudovirus) [14] was over 10 µg/mL, the IC95, neutralization of pseudovirus [14] was over 10 µg/mL and the IC50, neutralization of pseudovirus [15] was 0.0182 µg/mL. It also gave an IC80, neutralization of pseudovirus [15] of 0.272 µg/mL, an IC90 (neutralization of pseudovirus) [15] of 1.31 µg/mL and an IC95, neutralization of pseudovirus [15] of 5.48 µg/mL. It also gave an IC50, neutralization of pseudovirus [16] of 0.474 µg/mL, an IC80, neutralization of pseudovirus [16] of over 10 µg/mL and an IC90 (neutralization of pseudovirus) [16] of over 10 µg/mL. For the same binder, the IC95, neutralization of pseudovirus [16] was over 10 µg/mL, the IC50, neutralization of pseudovirus [17] was over 10 µg/mL and the IC80, neutralization of pseudovirus [17] was over 10 µg/mL. For the same binder, the IC90 (neutralization of pseudovirus) [17] was over 10 µg/mL, the IC95, neutralization of pseudovirus [17] was over 10 µg/mL and the IC50, neutralization of pseudovirus [18] was 0.0173 µg/mL. The IC80, neutralization of pseudovirus [18] was 0.263 µg/mL, the IC90 (neutralization of pseudovirus) [18] was 1.32 µg/mL and the IC95, neutralization of pseudovirus [18] was 6.13 µg/mL. It also gave an IC50, neutralization of pseudovirus [19] of 5.2 ng/mL, an IC80, neutralization of pseudovirus [19] of 0.0318 µg/mL and an IC90 (neutralization of pseudovirus) [19] of 0.106 µg/mL. The IC95, neutralization of pseudovirus [19] was 0.464 µg/mL, the IC50, neutralization of pseudovirus [20] was 8.9 ng/mL and the IC80, neutralization of pseudovirus [20] was 0.0317 µg/mL. It also gave an IC90 (neutralization of pseudovirus) [20] of 0.0669 µg/mL, an IC95, neutralization of pseudovirus [20] of 0.134 µg/mL and an IC50, neutralization of pseudovirus [21] of over 10 µg/mL. It also gave an IC80, neutralization of pseudovirus [21] of over 10 µg/mL, an IC90 (neutralization of pseudovirus) [21] of over 10 µg/mL and an IC95, neutralization of pseudovirus [21] of over 10 µg/mL. It also gave an IC50, neutralization of pseudovirus [22] of 0.635 µg/mL, an IC80, neutralization of pseudovirus [22] of over 10 µg/mL and an IC90 (neutralization of pseudovirus) [22] of over 10 µg/mL. For the same binder, the IC95, neutralization of pseudovirus [22] was over 10 µg/mL, the IC50, neutralization of pseudovirus [23] was over 10 µg/mL and the IC80, neutralization of pseudovirus [23] was over 10 µg/mL. For the same binder, the IC90 (neutralization of pseudovirus) [23] was over 10 µg/mL and the IC95, neutralization of pseudovirus [23] was over 10 µg/mL.

B2: PGT-135 (5343_B08; 5344_E16) (antibody, V domains shown)
VH: QLQMQESGPGLVKPSETLSLSCTVSGDSIRGGEWGDKDYHWGWVRHSAGKGLEWIGSIHWRGTTHYKESLRRRVSMSIDTSRNWFSLRLASVTAADTAVYFCARHRHHDVFMLVPIAGWFDVWGPGVQVTVSS
VL: EIVMTQSPDTLSVSPGETVTLSCRASQNINKNLAWYQYKPGQSPRLVIFETYSKIAAFPARFVASGSGTEFTLTINNMQSEDVAVYYCQQYEEWPRTFGQGTKVDIK
Work on B2 yielded an IC50, pseudovirus neutralization [1] of 0.0139 µg/mL, an IC50, pseudovirus neutralization [2] of over 10 µg/mL and an IC50, pseudovirus neutralization [4] of 0.0433 µg/mL. The IC50, pseudovirus neutralization [5] was 6.79 µg/mL, the IC50, pseudovirus neutralization [6] was over 10 µg/mL and the IC50, pseudovirus neutralization [8] was over 10 µg/mL. It also gave an IC50, pseudovirus neutralization [9] of over 10 µg/mL, an IC50, pseudovirus neutralization [10] of over 10 µg/mL and an IC50, pseudovirus neutralization [11] of over 10 µg/mL. For the same binder, the IC50, pseudovirus neutralization [12] was 0.545 µg/mL, the IC50, pseudovirus neutralization [13] was over 10 µg/mL and the IC50, pseudovirus neutralization [14] was over 10 µg/mL. For the same binder, the IC50, pseudovirus neutralization [15] was 0.0183 µg/mL, the IC50, pseudovirus neutralization [16] was over 10 µg/mL and the IC50, pseudovirus neutralization [17] was over 10 µg/mL. It also gave an IC50, pseudovirus neutralization [18] of 12.3 ng/mL, an IC50, pseudovirus neutralization [19] of over 10 µg/mL and an IC50, pseudovirus neutralization [20] of 0.113 µg/mL. For the same binder, the IC50, pseudovirus neutralization [21] was over 10 µg/mL, the % neutralized [24] was 54% and the median IC50, pseudovirus neutralization [24] was 0.11 µg/mL. The IC50, pseudovirus neutralization [22] was over 10 µg/mL and the IC50, pseudovirus neutralization [23] was 2.16 µg/mL.

B3: PGT-136 (5329_C19; 5366_P21) (antibody, V domains shown)
VH: QLQLQESGPGLVKPSETLSLTCTVSGGSMRGTDWGENDFHYGWIRQSSAKGLEWIGSIHWRGRTTHYKTSFRSRATLSIDTSNNRFSLTFSFVTAADTAVYYCARHKYHDIFRVVPVAGWFDPWGQGLLVTVSS
VL: EIVMTQSPPTLSVSPGETATLSCRASQNVKNNLAWYQLKPGQAPRLLIFDASSRAGGIPDRFSGSGYGTDFTLTVNSVQSEDFGDYFCQQYEEWPRTFGQGTKVDIK
For B3, the IC50, pseudovirus neutralization [1] was 0.0915 µg/mL, the IC50, pseudovirus neutralization [2] was over 10 µg/mL and the IC50, pseudovirus neutralization [4] was over 10 µg/mL. It also gave an IC50, pseudovirus neutralization [5] of over 10 µg/mL, an IC50, pseudovirus neutralization [6] of over 10 µg/mL and an IC50, pseudovirus neutralization [8] of over 10 µg/mL. For the same binder, the IC50, pseudovirus neutralization [9] was over 10 µg/mL, the IC50, pseudovirus neutralization [10] was over 10 µg/mL and the IC50, pseudovirus neutralization [11] was over 10 µg/mL. It also gave an IC50, pseudovirus neutralization [12] of over 10 µg/mL, an IC50, pseudovirus neutralization [13] of over 10 µg/mL and an IC50, pseudovirus neutralization [14] of over 10 µg/mL. It also gave an IC50, pseudovirus neutralization [15] of 0.0135 µg/mL, an IC50, pseudovirus neutralization [16] of over 10 µg/mL and an IC50, pseudovirus neutralization [17] of over 10 µg/mL. For the same binder, the IC50, pseudovirus neutralization [18] was 6.5 ng/mL, the IC50, pseudovirus neutralization [19] was over 10 µg/mL and the IC50, pseudovirus neutralization [20] was over 10 µg/mL. For the same binder, the IC50, pseudovirus neutralization [21] was over 10 µg/mL, the % neutralized [24] was 18% and the median IC50, pseudovirus neutralization [24] was 0.05 µg/mL. For the same binder, the IC50, pseudovirus neutralization [22] was over 10 µg/mL and the IC50, pseudovirus neutralization [23] was over 10 µg/mL.
